Columns and labels:
Format in all cases: biochemical
[1] = HTP-analysis of supernatants pretreated with acid (MUGal hydrolysis); settings: challenge at pH 4.3; activity of the variant/activity of WT GLA (SEQ ID NO: 5); yeast supernatant
Protocol: (§1) Yeast (INVSc1) cells transformed with vectors expressing GLA and GLA variants using the lithium acetate method were selected on SD-Ura agar plates. After 72 h incubation at 30° C. colonies were placed into the wells of Axygen® 1.1 ml 96-well deep well plates filled with 200 μl/well SD-Ura broth (2 g/L SD-Ura, 6.8 g/L yeast nitrogen base without amino acids [Sigma Aldrich]), 3.06 g/L sodium dihydrogen phosphate, 0.804 g/L disodium hydrogen phosphate, pH 6.0 supplemented with 6% glucose. The cells were allowed to grow for 20-24 hours in a Kuhner shaker (250 rpm, 30° C., and 85% relative humidity). Overnight culture samples (20 μL) were transferred into Corning Costar® 96-well deep plates filled with 380 µL of SD-ura broth supplemented with 2% glucose. The plates were incubated for 66-84 h in a Kuhner shaker (250 rpm, 30° C., and 85% relative humidity). The cells were then pelleted (4000 rpm×20 min), and the supernatants isolated and stored at 4° C. prior to analysis.
GLA variants were challenged with acidic buffer to simulate the extreme pHs that the variants may encounter in lysosomes. First, 50 μL of yeast culture supernatant and 50 uL of McIlvaine buffer (pH 3.3-4.3) were added to the wells of a 96-well round bottom plate. The plates were sealed with a PlateLoc Thermal Microplate Sealer (Agilent) and incubated at 37° C. for 1-3 h. For the assay, 10-50 uL of acid-pH-challenged sample was mixed with 0-40 μL, of McIlvaine buffer pH 4.8, 25 μL, of 1 M citrate buffer pH 4.3 and 25 μL, of 4 mM MUGal in McIlvaine buffer pH 4.8. The reactions were mixed briefly and incubated at 37° C. for 30-180 minutes, prior to quenching with 100 μL, of 1 M sodium carbonate. Hydrolysis was analyzed using a SpectraMax® M2 microplate reader monitoring fluorescence (Ex. 355 nm, Em. 448 nm).

[2] = HTP-analysis of supernatants pretreated with base (MUGal hydrolysis); settings: challenge at pH 7.0; activity of the variant/activity of WT GLA (SEQ ID NO: 5); yeast supernatant
Protocol: as §1
GLA variants were challenged with basic (neutral) buffer to simulate the pHs that the variants encounter in the blood following their administration to a patient. First, 50 μL of yeast culture supernatant and 50 uL of McIlvaine buffer (pH 7.0-8.2) or 200 mM sodium bicarbonate (pH 9.1-9.7) were added to the wells of a 96-well round bottom plate. The plates were sealed and incubated at 37° C. for 1-18 h. For the assay, 10-50 μL of basic-pH-challenged sample was mixed with 0-40 μL, of McIlvaine buffer pH 4.8, 25 μL, of 1 M citrate buffer pH 4.3 and 25 μL, of 4 mM MUGal in McIlvaine buffer pH 4.8. The reactions were mixed briefly and incubated at 37° C. for 30-180 minutes, prior to quenching with 100 μL, of 1 M sodium carbonate. Hydrolysis was analyzed using a SpectraMax® M2 microplate reader monitoring fluorescence (Ex. 355 nm, Em. 448 nm).

[3] = HTP-analysis of yeast culture supernatants, no challenge (MUGal hydrolysis); settings: activity of the variant/activity of WT GLA (SEQ ID NO: 5), yeast supernatant
Protocol: as §1
GLA variant activity was determined by measuring the hydrolysis of 4-methylumbelliferyl α-D-galactopyranoside (MUGal). For this assay, 5-50 μL, of yeast culture supernatant produced as described above, was mixed with 0-45 μL, of McIlvaine Buffer (McIlvaine, J. Biol. Chem., 49:183-186 [1921]), pH 4.8 and 50 μL of 2 mM MUGal in 50 mM citrate, 200 mM KCl, pH 4.6 in a 96-well, black, opaque bottom plate. The reactions were mixed briefly and incubated at 37° C. for 30-180 minutes, prior to quenching with 100 μL, of 1 M sodium carbonate. Hydrolysis was analyzed using a SpectraMax® M2 microplate reader monitoring fluorescence (Ex. 355 nm, Em. 448 nm).

Molecule | Relative Activity of GLA Variants After Challenge at pH 4.3 [1] | Relative Activity of GLA Variants After Challenge at pH 7.0 [2] | Relative Activity of GLA Variants After No Challenge (NC) [3]
16 (protein, Synthetic Polypeptide sequence of Variant No. 16 of mature Human GLA) LDNGLARTPTMGWLHWERFMCNLDCQEEPDSCISEKLFMEMAELMVSDGWKDAGYEYLCIDDCWMAPQRDSEGRLQADPQRFPHGIRQLANYVHSKGLKLGIYADVGNKTCAGFPGSFGYYDIDAQTFADWGVDLLKFDGCYCDSLENLADGYKHMSLALNRTGRSIVYSCEWPLYMWPFQKPNYTEIRQYCNHWRNFADIDDSWKSIKSILDWTSFNQERIVDVAGPGGWNDPDMLVIGNFGLSWNQQVTQMALWAIMAAPLFMSNDLRHISPQAKALLQDKDVIAINQDPLGKQGYQLRQGDNFEVWERPLSGLAWAVAMINRQEIGGPRSYTIAVASLGKGVACNPACFITQLLPVKRKLGFYEWTSRLKSHVNPTGTVLLQLENTMQMSLKDLLL | ++ (++ = >1.5 to 2.5 relative activity over WT GLA (SEQ ID NO: 5)) | + (+ = 0.5 to 1.5 relative activity over WT GLA (SEQ ID NO: 5)) | + (+ = 0.5 to 1.5 relative activity over WT GLA (SEQ ID NO: 5))
18 (protein, Synthetic Polypeptide sequence of Variant No. 18 of mature Human GLA) LDNGLARTPTMGWLHWERFMCNLDCQEEPDSCISEKLFMEMAELMVSEGWKDAGYEYLCIDDCWMAPQRDSEGRLQADPQRFPHGIRQLANYVHSKGLKLGIYADVGNKTCAGFPGSFGYYDIDAQTFADWGVDLLKFDGCYCDSLENLADGYKHMSLALNRTGRSIVYSCEWPLYMWPFQKPNYTEIRQYCNHWRNFADIDDSWKSIKSILDWTSSNQERIVDVAGPGGWNDPDMLVIGNFGLSWNQQVTQMALWAIMAAPLFMSNDLRHISPQAKALLQDKDVIAINQDPLGKQGYQLRQGDNFEVWERPLSGLAWAVAMINRQEIGGPRSYTIAVASLGKGVACNPACFITQLLPVKRKLGFYEWTSRLRSHINPTGTVLLQLENTMQMSLKDLLL | + (+ = 0.5 to 1.5 relative activity over WT GLA (SEQ ID NO: 5)) | ++ (++ = >1.5 to 2.5 relative activity over WT GLA (SEQ ID NO: 5)) | + (+ = 0.5 to 1.5 relative activity over WT GLA (SEQ ID NO: 5))
19 (protein, Synthetic Polypeptide sequence of Variant No. 19 of mature Human GLA) LDNGLARTPTMGWLHWERFMCNLDCQEEPDSCISEKLFMEMAELMVSEGWKDAGYEYLCIDDCWMAPQRDSEGRLQADPQRFPHGIRQLANYVHSKGLKLGIYADVGNKTCAGFPGSFGYYDIDAQTFADWGVDLLKFDGCYCDSLENLADGYKHMSLALNRTGRSIVYSCEWPLYMWPFQKPNYTEIRQYCNHWRNFADIDDSWKSVKSILDWTSFNQERIVDVAGPGGWNDPDMLVIGNFGLSWDQQVTQMALWAIMAAPLFMSNDLRHISPQAKALLQDKDVIAINQDPLGKQGYRLRKGDNFEVWERPLSGLAWAVAMINRQEIGGPRSYTIAVASLGKGVACNPACFITQLLPVKRKLGFYEWTSRLKSHVNPTGTVLLQLENTMQMSLKDLLL | ++ (++ = >1.5 to 2.5 relative activity over WT GLA (SEQ ID NO: 5)) | + (+ = 0.5 to 1.5 relative activity over WT GLA (SEQ ID NO: 5)) | + (+ = 0.5 to 1.5 relative activity over WT GLA (SEQ ID NO: 5))
20 (protein, Synthetic Polypeptide sequence of Variant No. 20 of mature Human GLA) LDNGLARTPTMGWLHWERFMCNLDCQEEPDSCISEKLFMEMAELMVSEGWKDAGYEYLCIDDCWMAPQRDSEGRLQADPQRFPHGIRQLANYVHSKGLKLGIYADVGNKTCAGFPGSFGYYDIDAQTFADWGVDLLKFDGCYCDSLENLADGYKHMSLALNRTGRSIVYSCEWPLYMWPFQKPNYTEIRQYCNHWRNFADIDDSWKSVKSILDWTSFNQERIVDVAGPGGWNDPDMLVIGNFGLSWDQQVTQMALWAIMAAPLFMSNDLRHISPQAKALLQDKDVIAINQDPLGKQGYRLRQGDNFEVWERPLSGLAWAVAMINRQEIGGPRSYTIAVASLGKGVACNPACFITQLLPVKRKLGFYEWTSRLKSHVNPTGTVLLQLENTMQMSLKDLLL | +++ (+++ = >2.5 relative activity over WT GLA (SEQ ID NO: 5)) | ++ (++ = >1.5 to 2.5 relative activity over WT GLA (SEQ ID NO: 5)) | + (+ = 0.5 to 1.5 relative activity over WT GLA (SEQ ID NO: 5))
21 (protein, Synthetic Polypeptide sequence of Variant No. 21 of mature Human GLA) LDNGLARTPTMGWLHWERFMCNLDCQEEPDSCISEKLFMEMAELMVSEGWKDAGYEYLCIDDCWMAPQRDSEGRLQADPQRFPHGIRQLANYVHSKGLKLGIYADVGNKTCAGFPGSFGYYDIDAQTFADWGVDLLKFDGCYCDSLENLADGYKHMSLALNRTGRSIVYSCEWPLYMWPFQKPNYTEIRQYCNHWRNFADIDDSWKSVKSILDWTSFNQERIVDVAGPGGWNDPDMLVIGNFGLSWDQQVTQMALWAIMAAPLFMSNDLRHISPQAKALLQDKDVIAINQDPLGKQGYQLRQGDNFEVWERPLSGLAWAVAMINRQEIGGPRSYTIAVASLGKGVACNPACFITQLLPVKRKLGFYEWTSRLKSHVNPTGTVLLQLENTMQMSLKDLLL | +++ (+++ = >2.5 relative activity over WT GLA (SEQ ID NO: 5)) | ++ (++ = >1.5 to 2.5 relative activity over WT GLA (SEQ ID NO: 5)) | + (+ = 0.5 to 1.5 relative activity over WT GLA (SEQ ID NO: 5))
17 (protein, Synthetic Polypeptide sequence of Variant No. 17 of mature Human GLA) LDNGLARTPTMGWLHWERFMCNLDCQEEPDSCISEKLFMEMAELMVSGGWKDAGYEYLCIDDCWMAPQRDSEGRLQADPQRFPHGIRQLANYVHSKGLKLGIYADVGNKTCAGFPGSFGYYDIDAQTFADWGVDLLKFDGCYCDSLENLADGYKHMSLALNRTGRSIVYSCEWPLYMWPFQKPNYTEIRQYCNHWRNFADIDDSWKSIKSILDWTSFNQERIVDVAGPGGWNDPDMLVIGNFGLSWNQQVTQMALWAIMAAPLFMSNDLRHISPQAKALLQDKDVIAINQDPLGKQGYQLRQGDNFEVWERPLSGLAWAVAMINRQEIGGPRSYTIAVASLGKGVACNPACFITQLLPVKRKLGFYEWTSRLKSHINPTGTVLLQLENTMQMSLKDLLL | + (+ = 0.5 to 1.5 relative activity over WT GLA (SEQ ID NO: 5)) | + (+ = 0.5 to 1.5 relative activity over WT GLA (SEQ ID NO: 5)) | + (+ = 0.5 to 1.5 relative activity over WT GLA (SEQ ID NO: 5))
